This is an account of results in patent publication US20150351390A1, “COMPOSITIONS AND METHODS FOR AUXIN-ANALOG CONJUGATION” (PIONEER HI-BRED INTERNATIONAL, INC., priority 2012, published 2015).

Series [1] can be described thus: LC-MS assay of GH3 conjugation of 2,4-D with Asp or Glu. Particulars: for kcat (hrs−1) 2,4-D-Asp: conjugation of 2,4-D with Asp by recombinant GH3 protein, 2,4-D-Asp product by LC-MS; for kcat (hrs−1) 2,4-D-Asp / kcat (hrs−1) 2,4-D-Glu: 5 mM 2,4-D substrate; for kcat (hrs−1) 2,4-D-Glu: conjugation of 2,4-D with Glu by recombinant GH3 protein, 2,4-D-Glu product by LC-MS; for 2,4-D conjugation activity with Asp or Glu: result in words. It is filed as biochemical. The procedure, abridged: (§1)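 Rxn: 20 mM Tris-HCl pH 8.0, 5 mM MgCl2, 1 mM DTT, 5 mM ATP, 5 mM auxin, 5 mM Asp/Glu, 44–164 μg/mL purified His-GH3; 30° C., 3 h. MeOH quench, supernatant diluted 20×, LC-MS vs conjugate standards.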

Series [2] is described as follows: LC-MS assay of GH3 conjugation of IAA with Asp or Glu. The series is classed as biochemical. Particulars: for kcat (hrs−1) IAA-Asp: conjugation of IAA with Asp by recombinant GH3 protein, IAA-Asp product by LC-MS; for kcat (hrs−1) IAA-Glu: conjugation of IAA with Glu by recombinant GH3 protein, IAA-Glu product by LC-MS; for IAA conjugation activity with Asp or Glu: result in words. Put shortly:
as §1

B1: OsGH3-7: GH3 protein, accession Q654M1 (protein, listed as Oryza sativa)
chain: MALLLPEFDPADVRAGRDLIHRLTADAAGIQRGVLREILSRNSGTEYLRRFLGGAAGDDDDVRDAFKRRVPVSGYEDVKPYVDRVASGGEPSSALLCSDPITCLSRSSGTSGGQQKLLPSTAEELDRKVFFYAVQALVRNMSLHTDHGEDDDGGGGEGMYLMFAFHGDRTLSGLPIQSALTTYYHSRQFQECDIGGFDKCTSPLEAILCPYGEQSMYCQLLCGLLHRCRVDRVGASFAAGLVRGIKFLENHWEEMCFNIRSGQLSDWITHTPLRDAVTGQYLQGSNPALADEIASECARKPWDGIVRRLWPRARYIRTIVTGSMSQYIPILEVYGGGLPLVSPIYASTECAAGINLRPLDPPSHVSYALLPNIAYFEFLEVMDENGEKVQGTTRLDDNLGEVKVVDLVDVKVGRCYELIVTTFAGLYRYRVGDLFTVSGFYNATPLFHFSGRHDVILSIDYEKISEEDLLNAIAETDKFHLRPLGYMLVGSTAYADISTLPGHYILFWELTNTCDSNVAIDIDQTAMEKCCLAVEDHFDEMYRKIRHRGSISALEIRILSHGAFDALMDFFVSRGTSASQYKTPTAIRSKEAMMVLEERVVGRFFSQATPSCRSAEFERR
Regarding B1, in series [1], the “kcat (hrs−1) 2,4-D-Asp” value came to 0.000 h⁻¹, the “kcat (hrs−1) 2,4-D-Glu” value was 0.028 h⁻¹ and the “2,4-D conjugation activity with Asp or Glu” value (from here on “2,4-D conjugation activity”) is reported as 2,4-D conjugases. In series [2], the “kcat (hrs−1) IAA-Asp” value was 0.000 h⁻¹, the “kcat (hrs−1) IAA-Glu” value amounted to 0.000 h⁻¹ and the “IAA conjugation activity with Asp or Glu” value is “IAA-inactive”.

B2: PtGH3-9: GH3 protein, accession EEE81977 (protein, listed as Populus trichocarpa)
chain: MDGKKLEYKGWVALKEIERLTEKADEVQETILKAILMQNGETEYLSKYMKGSKDVDEFKFHVPVITYKDVCPYIQRIATGEDSSLVTGHPVTEMLCSSGTSAGEPKLMPSIAEDLDRRTFVYNLIMPIMNQYIFGLDEGKAMFLYFIKAEMSTPCGLPARTVLTSYYKSKHFKCRTRDAFNDFTSPDQAILCKDSNQSMYCQLLSGLVHRHQVLRLGAVFASAFLRAISFLERNWGRLCNDIRSGDLDPTITDPECRSCMSMLLTSPNPSLADEIEDICSNTSWKGILCHLWPRAKYIEAVVTGSMAQYIPSLEYYSEGKLPLVCTMYASSECYFGVNLKPLCDPADVAFTLLPNMCYFEFIHLGENGTWLVNKDEEGEVPNDKLVNLVNVRLGSYYELVVTTFAGLYRYRIGDVLRVTGFHNKAPQFQFICRRNVVLSIDNDKTNEEDLHKSITAAKKLLEPYDALLVEYTSYADTSSVPGHYVLYWEILHDASFPDSSAQLDVKLLQECCISVEEELDYVYRRCRAHDKSVGPLEIRVVESGTFEALMDFFIGQGASINQYKTPRSIKSNAALKLLNSHVKASAFSPRDPAWIP
For the molecule B2, in series [1], the “kcat (hrs−1) 2,4-D-Asp” value worked out at 0.065 h⁻¹ and the “kcat (hrs−1) 2,4-D-Glu” value was 0.305 h⁻¹. In series [2], the “kcat (hrs−1) IAA-Asp” value was determined as 4.487 h⁻¹ and the “kcat (hrs−1) IAA-Glu” value is 21.980 h⁻¹.

B3: OsGH3-11: GH3 protein, accession P0C0M3 (protein, listed as Oryza sativa)
chain: MDDHNLDYKGSGALEELEMLTVNAKEAQELILTKILERNQATEYLSKFMNGSTNISAFKRHVPVVTYDKVHPYILRIATGEESSILCGEYILELLRSSGTSRGEPRLMPSILKDLDRRTYLYSLIMPIMNKYISGLGEGKAMYLLFVKAETLTDSGIPVRSVLTSYYKSPHFLHRKHDLYNNYTSPDEVILCPDSQQSMYCQLLCGLVERQHVLRIGAVFASAFLRSISFLEQHWRDLVNDIRIGQLNSSITSPACRLAMLNFLALPNPELADQVEAICSCGSWKGILGRLWPNVKYIEAVLTGTMAQYIPMLEFYGGGAIPFVCTMYASSESYFGVNLSPLCSPADVSYTILPNMAYFEFIPLEDGLRLTDHEEVIENDKLVSLVDVKVGCYYELVVTTFSGLYRYRVGDVLQVTGFYNRAPQFKFICRRNVILSIDSDKTNEEDLHNSVTTAKKILENQNYLLLEYTSYTDISTVPGHYVLFWEIKSTHDERPAPLDAQLLESCCAAVEESLDYVYRRCRAHDRSIGPLEIRLVEAGAFDALMDLLVSHGSSINQYKTPRCIESSLALKLLNSKVIACFFSPQDPECGM
Take B3: in series [1], the “kcat (hrs−1) 2,4-D-Asp” value was determined as 0.000 h⁻¹, the “kcat (hrs−1) 2,4-D-Glu” value came out at 0.043 h⁻¹ and the “2,4-D conjugation activity” value is recorded as 2,4-D conjugases. For the same molecule, in series [2], the “kcat (hrs−1) IAA-Asp” value was 0.000 h⁻¹, the “kcat (hrs−1) IAA-Glu” value was found to be 0.000 h⁻¹ and the “IAA conjugation activity with Asp or Glu” value is “IAA-inactive”.

B4: PtGH3-14: GH3 protein, accession EEE99364 (protein, listed as Populus trichocarpa)
chain: MTYDELDRNLEDLTKNAAHHQLQTLHSILQHQASVGYLQPYLSACHAPVDAATFRSQVPLSSYDDYFHLINQLANGDIDHHQPLLSADPLLCFFYSSGTSTMKPKLIPYFDSALSKAASYNAHQGSAAIFRNLVPPRPEVNKILWFLYADDAPTTRGGFKVMAASTYPLQGNKSRSNWSQTLSCISPREVVFGSNIKQQMYCHLLCALRSFDIIDGIRAAYAAGLIRAFSLLESKWEKLCDDLESGFPSLEIGDAAMKESVVEFLGGPQVDLSRRIREICAESNWGGILSKLWPNVRYVKSVTTGSMKQYYSKLKYYAGDVMILGGDYFASECCLGINLDIQQPPESTRFVMLPTTAYFEFLPFDLNESSVVGEETVDFSGVKVGKMYEVAVTTYRGLYRYRLGDIVRVVGFHNSSPLVEFVMRAPKTGYEIITEKDLMSAMESFQHSMAAEVVEFASFSDFELSPKRLKVFIEFREGCDFLQEEKLQGSVEALQRCCSSLENGLGEIYKVQKDRGEIGPLLVSVVRSGSFDGILQMAIKNGAPAGQYKPPKIIRNREIVDFMEESAVLTISLDSFHG
Turning to B4, in series [1], the “kcat (hrs−1) 2,4-D-Asp” value came to 0.000 h⁻¹, the “kcat (hrs−1) 2,4-D-Glu” value came out at 0.015 h⁻¹ and the “2,4-D conjugation activity” value is reported as 2,4-D conjugases. Further, in series [2], the “kcat (hrs−1) IAA-Asp” value came out at 0.000 h⁻¹, the “kcat (hrs−1) IAA-Glu” value came to 0.000 h⁻¹ and the “IAA conjugation activity with Asp or Glu” value is “IAA-inactive”.

B5: AtGH3-13: GH3 protein, accession CAB86642 (protein, listed as Arabidopsis thaliana)
chain: MLPKFDLTDPKASLSLLEDVTTNVTQIQDSILEAVLSRNAHTEYLKGFLNGQVDKQTFKKNVPIVTYEDIKPYINRIANGEASDLICDRPISLLVMSSGTTAGIQNLIPLTTEDGEQRIMFGSLYRSLLYKYVEGIREGKSLTFYFVNPERETASGILIRTMITCILKSVNKTNSSLWDRLQISPHEISTCEDTTQSMYCQLLCGLLQRDNVARLGAPFASVFIRVIKYLEGHWQELCSNIRTGRLSDWITDPQCVSGISKFLTAPNPDLASLIEQECSKTSWEAIVKRLWPKAKCVEAVVTGSMAQYIPLLEFYGGGLPLISSWYGSSECFMGVNVNPLCKPSDVSYTIIPSMAYFEFLEVKKDQQEAGLDPIENHVVVDLVDVKIGHDYEPVVTTFSGLYRYRVGDLLRVTGFYNNSPHFRFVGRQKVVLSLHMANTYEEDLLKAVTNAKLLLEPHDLMLMEFTSRVDSSSFVGHYVLYWELGSKVKDAKLEPNRDVMEECCFTVEKYLDPLYRQERRKDKNIGPLEIKVVKPGAFDELMNFFLSRGSSVSQYKTPRSVKTEEAVKILEANVVSEFLSQETPPWG
As for B5, in series [1], the “kcat (hrs−1) 2,4-D-Asp” value is 0.000 h⁻¹, the “kcat (hrs−1) 2,4-D-Glu” value came to 0.018 h⁻¹ and the “2,4-D conjugation activity” value is 2,4-D conjugases. In addition, in series [2], the “kcat (hrs−1) IAA-Asp” value came to 0.000 h⁻¹, the “kcat (hrs−1) IAA-Glu” value was 0.000 h⁻¹ and the “IAA conjugation activity with Asp or Glu” value was “IAA-inactive”.

B6: VvGH3-8: GH3 protein, accession XP_002271002 (protein, listed as Vitis vinifera)
chain: MADGEILKKLEDSTKDAVAVQLQTLHTILQRNGRSSYLQRYGASLDTGSFREAVPLSCYDDYADYIDRMADGGGGDDDGDRPLLSVDPLVCFFNSSGTSSMKPKLIPYFDSPPSKAASHIAHQGSVAILRRLFPPRQSINKVLWFLYAGNVTYTKGGFKAMAASAFPLQSNNKNPSPFLSTSASPREVILGSNVEQQMYCHILCGLRNLDFLDGIRAPYAVGLIRAFALLEFKWEQICEDLKCGFPSMEITDIAMRDSVTEVLAGPQLDLSKRIRTICEGKNWGGIVGKLWPNVRYIKCVCTGSMEQYYQKLKYYAGEIPVLGGDYFASECCVGINLDILQPPQLTRFVLLPTAAYFEFLPFTLDEEEIGDDAQETVDFSGVEVGKMYEIVVTTYRGFFRYRLGDVVRVVGFHNTSPEVEFVMRAPKTPAEILTERDLMTAMGNFQLVLRTVKMPDVTEFASFFDLDSIPKQLKIFLEVAGVLQDEKLQELGSVLRRNFSSLEDGLGGVYKLRKGRGEVGPLLVSIVKPGSFNRLLQMATENGAPASQYKPPKIIRNLEIVHFMEGSALLTVSFDSSD
B6: in series [1], the “kcat (hrs−1) 2,4-D-Asp” value stood at 0.000 h⁻¹, the “kcat (hrs−1) 2,4-D-Glu” value is 0.028 h⁻¹ and the “2,4-D conjugation activity” value is on record as 2,4-D conjugases. In series [2], the “kcat (hrs−1) IAA-Asp” value worked out at 0.000 h⁻¹, the “kcat (hrs−1) IAA-Glu” value is 0.000 h⁻¹ and the “IAA conjugation activity with Asp or Glu” value was “IAA-inactive”.

B7: AtGH3-14: GH3 protein, accession CAB87143 (protein, listed as Arabidopsis thaliana)
chain: MLPKFDPTDQKACLSLLEDVTTNVKQIQDSVLEAILSRNAHTEYLSGFLNGQADKKSFKKNVPVVTYEDIKPYIDRIANGEPSDLICDRPISVLLTSSGTSGGVPKLIPLTTEELEQRISFASLYRPLLYKYIEGIRERKSFMLYFVTRESETASGILVRTMITCVLKSVTPANSFIWDQSQISPHAITTCSDTTQSMYCQLLCGLLQRDNVGRLGAPFASSFLKIIKFLEDHWPEFCSNIRTGCLSDWITDPQCVSGIGKFLTAPNPELASLIEQECSQTSWEAIVKRLWPKAKCIEAIVTGTMAQYNPLLEFYSGGLPVISTFYGSSECFFGLNLNPLSKPNEVSYTIIPCMAYFEFLEVEKDYESGHDPAENPVVVDLVDVKIGHDYEPVVTTFAGLYRYRLGDVLRVTGFYNNAPQFHFVGRQKVVLSIDMDKTYDEDLLKAVTNASLLLEPHDLMLMDFTSRVDSSSYPGHYVLYWELGRKVKDAKLELDQNVLEECCFTIEESLDAVYRKGRKNDKNIGPLEIKVVKPGAFDKLMNFFLSRGSSVSQYKTPRSVTNEEALKILEANVVSEFLSQKTPSWELHELHSSR
For B7, in series [1], the “kcat (hrs−1) 2,4-D-Asp” value was 0.122 h⁻¹, the “kcat (hrs−1) 2,4-D-Glu” value came to 0.233 h⁻¹ and the “2,4-D conjugation activity” value is on record as 2,4-D conjugases. Also, in series [2], the “kcat (hrs−1) IAA-Asp” value stood at 0.000 h⁻¹, the “kcat (hrs−1) IAA-Glu” value amounted to 0.000 h⁻¹ and the “IAA conjugation activity with Asp or Glu” value is “IAA-inactive”.
